Target: T1, N-methyl D-aspartate receptor subunit GluN2B (rat (endogenous in hippocampal slices), UniProt Q00960 27-1482)
T1 construct: NMDA receptor subunit GluN2B, endogenous in hippocampal slices of male Sprague-Dawley rats aged 14-21 days; Immunoprecipitated from the lysate with a rabbit polyclonal antibody against the GluN2B C-terminus; other NMDA receptor subunits may be present in the precipitate but were not examined; source: endogenous, lysate of rat hippocampal slices (RIPA buffer)
Experiment: co-IP; GluN2B immunoprecipitated with rabbit polyclonal anti-GluN2B C-terminal antibody on protein A beads from 500 ug RIPA lysate of rat hippocampal slices (sagittal control or 20 uM scopolamine for 2 hrs; untreated coronal or sagittal), overnight at 4°C, four washes in RIPA; Western blot for RasGRF1, RasGRF1 normalized to GluN2B
Conditions: partners not purified

T1 sequence (Q00960 27-1482): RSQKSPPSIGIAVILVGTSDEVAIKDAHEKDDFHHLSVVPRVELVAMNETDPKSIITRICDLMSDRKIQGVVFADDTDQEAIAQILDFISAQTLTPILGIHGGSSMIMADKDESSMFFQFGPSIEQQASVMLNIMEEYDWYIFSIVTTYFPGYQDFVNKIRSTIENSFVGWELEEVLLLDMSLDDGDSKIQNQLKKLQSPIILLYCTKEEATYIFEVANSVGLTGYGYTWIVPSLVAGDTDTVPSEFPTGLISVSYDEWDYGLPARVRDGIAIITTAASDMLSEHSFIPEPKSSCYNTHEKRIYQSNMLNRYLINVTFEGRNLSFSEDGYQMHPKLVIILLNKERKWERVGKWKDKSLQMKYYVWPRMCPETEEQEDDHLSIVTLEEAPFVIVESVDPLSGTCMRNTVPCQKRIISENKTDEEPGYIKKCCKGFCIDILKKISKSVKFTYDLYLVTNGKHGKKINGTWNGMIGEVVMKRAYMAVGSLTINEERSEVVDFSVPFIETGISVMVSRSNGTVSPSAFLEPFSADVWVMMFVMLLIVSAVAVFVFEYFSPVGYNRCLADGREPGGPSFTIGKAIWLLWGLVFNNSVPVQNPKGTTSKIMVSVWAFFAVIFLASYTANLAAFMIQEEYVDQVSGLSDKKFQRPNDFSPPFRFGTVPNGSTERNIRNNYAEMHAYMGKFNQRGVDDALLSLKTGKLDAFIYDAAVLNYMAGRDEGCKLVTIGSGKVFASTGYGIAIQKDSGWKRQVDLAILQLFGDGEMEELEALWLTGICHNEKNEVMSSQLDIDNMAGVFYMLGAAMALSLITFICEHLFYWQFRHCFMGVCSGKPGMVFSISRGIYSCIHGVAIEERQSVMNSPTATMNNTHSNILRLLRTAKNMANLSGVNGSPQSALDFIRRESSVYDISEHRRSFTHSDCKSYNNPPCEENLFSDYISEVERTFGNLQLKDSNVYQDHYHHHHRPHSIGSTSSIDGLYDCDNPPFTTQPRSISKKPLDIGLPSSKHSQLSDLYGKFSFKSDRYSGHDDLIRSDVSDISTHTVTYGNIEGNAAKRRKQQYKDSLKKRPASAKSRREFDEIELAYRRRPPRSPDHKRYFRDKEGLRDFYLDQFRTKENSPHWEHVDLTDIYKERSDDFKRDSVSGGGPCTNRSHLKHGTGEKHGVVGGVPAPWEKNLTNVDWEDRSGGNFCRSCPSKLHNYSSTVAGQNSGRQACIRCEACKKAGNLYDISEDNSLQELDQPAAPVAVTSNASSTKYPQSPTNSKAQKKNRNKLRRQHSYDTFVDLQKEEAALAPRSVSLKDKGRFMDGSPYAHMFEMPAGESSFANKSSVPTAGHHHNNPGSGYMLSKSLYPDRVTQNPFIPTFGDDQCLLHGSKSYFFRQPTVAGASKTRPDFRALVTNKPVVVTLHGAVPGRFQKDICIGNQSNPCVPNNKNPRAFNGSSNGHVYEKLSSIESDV

B1: Ras Guanine nucleotide Release Factor 1 (natural protein, rat (endogenous in hippocampal slices), UniProt P28818 1-1244, looked up)
chain: MQKAIRLNDGHVVSLGLLAQRDGTRKGYLSKRSSDNPKWQTKWFALLQNLLFYFESDSSSRPSGLYLLEGSICKRMPSPKRGTSSKESDKQHHYFTVNFSNDSQKSLELRTDDSKDCDEWVAAIARASYKILATEHEALMQKYLHLLQVVETEKTVAKQLRQQLEDGEVEIERLKAEIANLIKDNERIQSNQLVAPEDEDSDIKKIKKVQSFLRGWLCRRKWKNIIQDYIRSPHADSMRKRNQVVFSMLEAEAEYVQQLHILVNNFLRPLRMAASSKKPPITHDDVSSIFLNSETIMFLHQIFYQGLKARIASWPTLVLADLFDILLPMLNIYQEFVRNHQYSLQILAHCKQNRDFDKLLKQYEAKPDCEERTLETFLTYPMFQIPRYILTLHELLAHTPHEHVERNSLDYAKSKLEELSRVMHDEVSETENIRKNLAIERMITEGCEILLDTSQTFVRQGSLIQVPMSEKGKINKGRLGSLSLKKEGERQCFLFSKHLIICTRGSGSKLHLTKNGVISLIDCTLLDDPENMDDDGKGQEVDHLDFKIWVEPKDSPPFTVILVASSRQEKAAWTSDIIQCVDNIRCNGLMMNAFEENSKVTVPQMIKSDASLYCDDVDIRFSKTMNSCKVLQIRYASVERLLERLTDLRFLSIDFLNTFLHSYRVFTDAVVVLDKLISIYKKPITAIPARSLELLFSSSHNTKLLYGDAPKSPRASRKFSSPPPLAIGTSSPVRRRKLSLNIPIITGGKALELASLGCPSDGYTNIHSPISPFGKTTLDTSKLCVASSLTRTPEEIDMTTLEESSGFRKPTSDILKEESDDDQSDVDDTEVSPPTPKSFRNRITQEFPLFNYNSGIMMTCRDLMDSNRSPLSATSAFAIATAGANESPANKEIYRRMSLANTGYSSDQRNIDKEFVIRRAATNRVLNVLRHWVTKHSQDFETDDLLKYKVICFLEEVMHDPDLLPQERKAAANIMRTLTQEEITENHSMLDELLLMTEGVKTEPFENHSAMEIAEQLTLLDHLVFKSIPYEEFFGQGWMKADKNERTPYIMKTTRHFNHISNLIASEILRNEEVSARASTIEKWVAVADICRCLHNYNAVLEITSSINRSAIFRLKKTWLKVSKQTKSLFDKLQKLVSSDGRFKNLRETLRNCDPPCVPYLGMYLTDLAFLEEGTPNYTEDGLVNFSKMRMISHIIREIRQFQQTTYKIEPQPKVTQYLVDETFVLDDESLYEASLRIEPKLPT
notes: RasGRF1, Ras-specific guanine nucleotide exchange factor, endogenous in hippocampal slices of male Sprague-Dawley rats aged 14-21 days; Detected in the GluN2B immunoprecipitate by Western blot with a rabbit polyclonal anti-RasGRF1 antibody; also called RasGRF1; source: endogenous, lysate of rat hippocampal slices (RIPA buffer)
  ratio of normalized RasGRF1 in GluN2B immunoprecipitate, coronal/sagittal: 1.33 ± 0.105
  ratio of normalized RasGRF1 in GluN2B immunoprecipitate, scopolamine/control: 2.04 ± 0.451
